Experiment [1] addresses GST-tagged Nsp3 Ubl1 (UniProt P0DTD1). Briefly: SPOT array alanine scan. Conditions: parent: est. 0; read off a plot.
Experiment [2] has as its target GST-tagged Nsp3 ADRP (UniProt P0DTD1). Put plainly: SPOT array alanine scan. The conditions noted are these: parent: est. -10; read off a plot.
Experiment [3] has as its target GST-tagged Nsp16 (UniProt P0DTD1). Put plainly: SPOT array alanine scan. The conditions noted are these: parent: est. 0; read off a plot.
In experiment [4] the target is FITC-DYRK1B_(394–409) (human) (UniProt Q9Y463). Briefly: fluorescence polarisation. Background: Polarisation of emitted light reports the rotation of a fluorescent probe.
Experiment [5] addresses Nsp3 Ubl1 (SARS-CoV-2) (UniProt P0DTD1). Put plainly: fluorescence polarisation.

As usually defined, the Kd is the equilibrium constant for the complex coming apart. A high value points to weaker binding.

On to “NCOA2_(1074–1089) on the SPOT array L1087A”, for which the other: signal change in % in experiment [1] was -40%.

With MBOAT1_(16–31) on the SPOT array H21A, the other: signal change in % in experiment [2] is -55%. On the same count and under the same terms, next, MBOAT1_(16–31) on the SPOT array S24A: -90%; MBOAT1_(16–31) on the SPOT array P30A: -45%. For “NCOA2_(1074–1089) on the SPOT array E1076A”, the other: signal change in % in experiment [1] was -40%. The same measure, in the same setting: next, “NCOA2_(1074–1089) on the SPOT array R1088A”: -30%.

As to MBOAT1_(16–31) on the SPOT array G28A, in experiment [2], the other: signal change in % is -50%. As to ICA1L_(450–465) on the SPOT array P14A, the other: signal change in % in experiment [3] was -22%. As for MBOAT1_(16–31) on the SPOT array I29A, the other: signal change in % in experiment [2] is -5%. On to “NCOA2_(1074–1089) on the SPOT array L1085A”, for which, in experiment [1], the other: signal change in % is -50%. In the case of MBOAT1_(16–31) on the SPOT array S17A, in experiment [2], the other: signal change in % was -25%. On to MBOAT1_(16–31) on the SPOT array Y19A, for which the other: signal change in % in experiment [2] was determined as 30%. Consider ICA1L_(450–465) on the SPOT array W5A, for which the other: signal change in % in experiment [3] is -100%.

With ICA1L_(450–465) on the SPOT array M2A, the other: signal change in % in experiment [3] is -57%. Turning to “NCOA2_(1074–1089) on the SPOT array L1083A”, the other: signal change in % in experiment [1] is -35%. Consider ICA1L_(450–465) on the SPOT array D1A, for which the other: signal change in % in experiment [3] is -25%. With “NCOA2_(1074–1089) on the SPOT array Q1082A”, the other: signal change in % in experiment [1] is -45%. ICA1L_(450–465) on the SPOT array S16A: in experiment [3], the other: signal change in % was -10%. Regarding “NCOA2_(1074–1089) on the SPOT array D1081A”, the other: signal change in % in experiment [1] is -20%. Consider ICA1L_(450–465) on the SPOT array F6A, for which the other: signal change in % in experiment [3] is -50%. As to “NCOA2_(1074–1089) on the SPOT array S1074A”, the other: signal change in % in experiment [1] turned out to be 0%.

The substance “Nsp16 (from UniProt P0DTD1 6799-7096) (enzyme)” showed an equilibrium dissociation constant (Kd) in experiment [4] of 3 µM. MBOAT1_(16–31) on the SPOT array L23A: the other: signal change in % in experiment [2] was -100%. The same measure, in the same setting: next, MBOAT1_(16–31) on the SPOT array E25A: -100%. For the substance “NCOA2_(1074–1089) on the SPOT array D1075A”, the other: signal change in % in experiment [1] is -5%. Take “NCOA2_(1074–1089) on the SPOT array Y1084A”: the other: signal change in % in experiment [1] was -62%. “N_(216–231) peptide (from UniProt P0DTC9 216-231)” returned a fold higher KD than NCOA2 (1074–1089) in experiment [5] of 2 fold. ICA1L_(450–465) on the SPOT array L15A: the other: signal change in % in experiment [3] is -20%. In the case of MBOAT1_(16–31) on the SPOT array L20A, in experiment [2], the other: signal change in % is -5%. With “NCOA2_(1074–1089) on the SPOT array G1077A”, the other: signal change in % in experiment [1] is -5%. In the case of ICA1L_(450–465) on the SPOT array S3A, the other: signal change in % in experiment [3] is -57%. Consider MBOAT1_(16–31) on the SPOT array G16A, for which the other: signal change in % in experiment [2] was -15%.

As to “NCOA2_(1074–1089) on the SPOT array L1079A”, the other: signal change in % in experiment [1] was -10%. Regarding ICA1L_(450–465) on the SPOT array N7A, the other: signal change in % in experiment [3] was -48%. In the case of “NCOA2_(1074–1089) on the SPOT array N1089A”, the other: signal change in % in experiment [1] was -25%. Regarding MBOAT1_(16–31) on the SPOT array P22A, the other: signal change in % in experiment [2] was -70%. For ICA1L_(450–465) on the SPOT array L8A, the other: signal change in % in experiment [3] is -35%. Regarding ICA1L_(450–465) on the SPOT array L12A, the other: signal change in % in experiment [3] is -20%.

Regarding MBOAT1_(16–31) on the SPOT array L27A, the other: signal change in % in experiment [2] was -20%.

Consider MBOAT1_(16–31) on the SPOT array L31A, for which the other: signal change in % in experiment [2] is -25%. On to ICA1L_(450–465) on the SPOT array D11A, for which the other: signal change in % in experiment [3] was -10%. Turning to MBOAT1_(16–31) on the SPOT array T18A, the other: signal change in % in experiment [2] was determined as 10%. Regarding MBOAT1_(16–31) on the SPOT array L26A, the other: signal change in % in experiment [2] was -45%. For the substance “NCOA2_(1074–1089) on the SPOT array L1080A”, the other: signal change in % in experiment [1] is -85%.

Turning to ICA1L_(450–465) on the SPOT array F9A, the other: signal change in % in experiment [3] was -88%.
